Test results from PMC11381518, “Human cell surface-AAV interactomes identify LRP6 as blood-brain barrier transcytosis receptor and immune cytokine IL3 as AAV9 binder” (Nature Communications, 2024).

What was measured:
Assay in all cases: pull-down; prey AAVs mixed with His-tagged bait protein and Ni-NTA resin in DPBS with 20 mM imidazole, 1 h at 4 °C; eluate analysed by Western blot with anti-VP1/VP2/VP3 and anti-6xHis
Settings in all cases: both partners purified
AAV9-X1.1 capsid = target: T1, AAV9-X1.1 capsid (adeno-associated virus 9, UniProt Q6JC40 1-736, VR IV AA452-458 NGSGQNQ to DGAATKN | VR VIII AA587-590 AQ - - - - - - - AQ to …)
T1 construct: AAV9 capsid protein VP1 with changes in VR-IV and VR-VIII; numbers count on VP1; also called AAV-X1.1; source: HEK293 cells, triple transfected, purified (iodixanol gradient); copies: 60

AAV9 capsid = target: T2, AAV9 capsid (adeno-associated virus 9, UniProt Q6JC40 1-736)
T2 construct: AAV9 capsid protein VP1; numbers count on VP1; Assembled capsid with a packaged genome; also called AAV9 (parent of vectors below); source: HEK293 cells, triple transfected, purified (iodixanol gradient); copies: 60

AAV.CAP-Mac capsid = target: T3, AAV.CAP-Mac capsid (adeno-associated virus 9, UniProt Q6JC40 1-736, VR VIII AA587-590 AQ - - - - - - - AQ to AQLNTTKPIAQ)
T3 construct: AAV9 capsid protein VP1 with an insertion in VR-VIII; numbers count on VP1; source: HEK293 cells, triple transfected, purified (iodixanol gradient); copies: 60

Measured: binding result

B1: human Adeno-Associated Virus Receptor (AAVR) PKD2 domain (AA 401-498) tagged with 6xHis (domain or fragment)
chain: EPRKNRPPIAIVSPQFQEISLPTTSTVIDGSQSTDDDKIVQYHWEELKGPLREEKISEDTAILKLSKLVPGNYTFSLTVVDSDGATNSTTANLTVNKA
notes: human AAVR (KIAA0319L), PKD2 domain, AA 401-498; source: E. coli BL21(DE3)-RIPL, purified (Ni-NTA)
binds: all assays above
